Results published in paper PMC11449929, “Structural basis of α-latrotoxin transition to a cation-selective pore” (Nature Communications, 2024).
“And” between values parts separate entries of the source, which are not always exact repeats. Equal entries are not always repeated.

Biological target: the molecule itself
Test: cryo-EM structure; α-LTX at 0.5 mg/ml in 25 mM Tris-HCl pH 8.0, 150 mM NaCl, 0.1 mM CaCl2, 0.2 mM MgCl2; 2D classification and 3D reconstruction of two tetrameric states (prepore, pore)

B1: α-latrotoxin (natural protein)
chain: EGEDLTLEEKAEICSELELQQKYVDIASNIIGDLSSLPIAGKIAGTIAAAAMTATHVASGRLDIEQTLLGCSDLPFDQIKEVLENRFNEIDRKLDSHSAALEEITKLVEKSISVVEKTRKQMNKRFDEVMKSIQDAKVSPIISKINNFARYFDTEKERIRGLKLNDYILKLEEPNGILLHFKESRTPTDDSLQAPLFSIIEEGYAVPKSIDDELAFKVLYALLYGTQTYVSVMFFLLEQYSFLANHYYEKGYLEKYDEYFNSLNNVFLDFKSSLVGTGTSNNEGLLDRVLQVLMTVKNSEFLGLEKNGVDEMLNEKINLFNKIKEEIEGKQKMTLSETPENFAQISFDKDITTPIGDWRDGREVRYAVQYASETLFSKISHWSDPVSVREKACPTLRMPVDQTRRNVLVFRKFDSSKPQLVGEITPYLSNFIDIDRDLYNAASNPDSAVGFKEFTKLNYDGANIRATFDHGRTVFHAAAKSGNDKIMFGLTFLAKSTELNQPDKKGYTPIHVAADSGNAGIVNLLIQRGVSINSKTYHFLQTPLHLAAQRGFVTTFQRLMESPEININERDKDGFTPLHYAIRGGERILEAFLNQISIDVNAKSNTGLTPFHLAIIKNDWPVASTLLGSKKVDINAVDENNITALHYAAILGYLETTKQLINLKEINANVVSSPGLLSALHYAILYKHDDVASFLMRSSNVNVNLKALGGITPLHLAVIQGRKQILSLMFDIGVNIEQKTDEKYTPLHLAAMSKYPELIQILLDQGSNFEAKTNSGATPLHLATFKGKSQAALILLNNEVNWRDTDENGQMPIHGAAMTGLLDVAQAIISIDATVVDIEDKNSDTPLNLAAQNSHIDVIKYFIDQGADINTRNKKGLAPLLAFSKKGNLDMVKYLFDKNANVYIADNDGMNFFYYAVQNGHLNIVKYAMSEKDKFEWSNTDNNRRDECPNEECAISHFAVCDAVQFDRIEIVKYFVGTLGNFAICGPLHQAARYGHLDIVKYLVEEEFLSVDGSKTDTPLCYASENGHFTVVQYLVSNGAKVNHDCGNGMTAIDKAITKNHLQVVQFLAANGVDFRRKNSRGTTPFLTAVAENALHIAEYLIREKRQDININEQNVDKDTALHLAVYYKNLQMIKLLIKYGIDVTIRNAYDKTALDIAIDAKFSNIVEYLKTKSGKFRR
notes: Tetramer in the presence of Ca2+/Mg2+; monomers, dimers and trimers stand in the same sample; Disulfide bonds seen: C34-C91 (CC1), C968-C973 (CC2), and CC3 and CC4 in AR15-19; the model ends at G1195; also called α-LTX
stoichiometry N: 4 and 3 and 2
